One block for each molecule: values may come before it.
What was measured:
[1] = target: human leukocyte antigen-DR (HLA-DR), on human cancer cell lines (human); experiment: cell-based or functional assay
[2] = target: human leukocyte antigen-DR (HLA-DR), on human cancer cell lines (human); experiment: cell-based ELISA on HLA-DR positive human melanoma cell line (printed A-374)
[3] = target: human leukocyte antigen-DR (HLA-DR), on human cancer cell lines (human); experiment: FACS, AlexaFluor-647-labeled IMMU-114 on MN-60 ALL cells
[4] = target: human leukocyte antigen-DR (HLA-DR), on human cancer cell lines (human); experiment: FACS, AlexaFluor-647-labeled IMMU-114 on MOLM-14 AML cells
[5] = target: human leukocyte antigen-DR (HLA-DR), on human cancer cell lines (human); experiment: chemiluminescent cell-binding assay on SK-MEL-28 human melanoma cells
[6] = target: human leukocyte antigen-DR (HLA-DR), on human cancer cell lines (human); experiment: FACS, AlexaFluor-647-labeled IMMU-114 on CAG MM cells
[7] = target: human leukocyte antigen-DR (HLA-DR), on human cancer cell lines (human); experiment: chemiluminescent cell-binding assay on A-375 human melanoma cells
[8] = target: human leukocyte antigen-DR (HLA-DR), on human cancer cell lines (human); experiment: chemiluminescent cell-binding assay (LUMIGLO), 2 µg/mL antibody on A-375 human melanoma cells, at both 4° C. and RT
[9] = target: human leukocyte antigen-DR (HLA-DR), on human cancer cell lines (human); experiment: chemiluminescent cell-binding assay on SK-MEL-2 human melanoma cells
[10] = target: human leukocyte antigen-DR (HLA-DR), on human cancer cell lines (human); experiment: FACS, AlexaFluor-647-labeled IMMU-114 on JVM-3 CLL cells
[11] = target: human leukocyte antigen-DR (HLA-DR), on human cancer cell lines (human); experiment: chemiluminescent cell-binding assay (LUMIGLO), 2 µg/mL antibody on A-375 cells; reference: humanized anti-CD22 control antibody
[12] = target: human leukocyte antigen-DR (HLA-DR), on human cancer cell lines (human); experiment: chemiluminescent cell-binding assay on SK-MEL-5 human melanoma cells

- Kd [2]: 0.77 nM
Molecule: IMMU-140 (hL243-CL2A-SN-38), anti-HLA-DR antibody drug conjugate
- IC50 (nM), in vitro cytotoxicity, CAG (MM) cells, MTS 96 h (nM (SN-38 equivalents)) [1]: 7.05
- IC50 (nM), in vitro cytotoxicity, JVM-3 (CLL) cells, MTS 96 h (nM (SN-38 equivalents)) [1]: 0.77
- IC50 (nM), in vitro cytotoxicity, MN-60 (ALL) cells, MTS 96 h (nM (SN-38 equivalents)) [1]: 1.29
- IC50 (nM), in vitro cytotoxicity, MOLM-14 (AML) cells, MTS 96 h (nM (SN-38 equivalents)) [1]: 1.21

- Mean fluorescence intensity (MFI) [3]: 65800 MFI
- Mean fluorescence intensity (MFI) [4]: 5750 MFI
- fold above background [5]: 25 fold
- Maximum % Inhibition at 40 nM, CAG (MM) cells [1]: 28%
- Maximum % Inhibition at 40 nM, JVM-3 (CLL) cells [1]: 65%
- Maximum % Inhibition at 40 nM, MN-60 (ALL) cells [1]: 37%
- Maximum % Inhibition at 40 nM, MOLM-14 (AML) cells [1]: 11%
- Mean fluorescence intensity (MFI) [6]: 80700 MFI
- fold above background [7]: 48 fold
- fold mean luminescence over background [8]: > 48 fold
- fold above background [9]: 2 fold
- Mean fluorescence intensity (MFI) [10]: 78700 MFI
- Kd [2]: 0.65 nM
- fold mean luminescence over non-specific control [11]: > 25 fold
- fold above background [12]: 12 fold
B1: IMMU-114 (hL243), humanized anti-HLA-DR IgG4 monoclonal antibody (antibody, from a related filing, V domains shown)
VH: QVQLQQSGSELKKPGASVKVSCKASGFTFTNYGMNWVKQAPGQGLKWMGWINTYTREPTYADDFKGRFAFSLDTSVSTAYLQISSLKADDTAVYFCARDITAVVPTGFDYWGQGSLVTVSS
VL: DIQLTQSPSSLSASVGDRVTITCRASENIYSNLAWYRQKPGKAPKLLVFAASNLADGVPSRFSGSGSGTDYTFTISSLQPEDIATYYCQHFWTTPWAFGGGTKLQIKR
- IC50 (nM), in vitro cytotoxicity, CAG (MM) cells, MTS 96 h [1]: > 40 nM
- IC50 (nM), in vitro cytotoxicity, JVM-3 (CLL) cells, MTS 96 h [1]: 1.52 nM
- IC50 (nM), in vitro cytotoxicity, MN-60 (ALL) cells, MTS 96 h [1]: > 40 nM
- IC50 (nM), in vitro cytotoxicity, MOLM-14 (AML) cells, MTS 96 h [1]: > 40 nM

— patent US20170360770A1
